According to US20250076311A1 (Chugai, published 2025):

T1: cynomolgus monkey FcγRIIIaS extracellular domain with C-terminal His-tag (cynomolgus monkey, UniProt Q8SPW2 21-206 at identity 1.00))
T1 construct: also called cyno FcgRIIIaS; cynoFcγRIIIaS
T1 chain: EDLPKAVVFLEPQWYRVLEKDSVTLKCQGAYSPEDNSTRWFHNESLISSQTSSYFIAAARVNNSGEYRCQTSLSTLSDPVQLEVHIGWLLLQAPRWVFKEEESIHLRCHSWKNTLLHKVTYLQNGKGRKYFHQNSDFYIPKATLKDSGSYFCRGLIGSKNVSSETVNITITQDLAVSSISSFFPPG

T2: cynomolgus monkey FcγRIIb extracellular domain with C-terminal His-tag (cynomolgus monkey)
T2 construct: also called cyno FcgRIIb; cynoFcγRIIb
T2 chain: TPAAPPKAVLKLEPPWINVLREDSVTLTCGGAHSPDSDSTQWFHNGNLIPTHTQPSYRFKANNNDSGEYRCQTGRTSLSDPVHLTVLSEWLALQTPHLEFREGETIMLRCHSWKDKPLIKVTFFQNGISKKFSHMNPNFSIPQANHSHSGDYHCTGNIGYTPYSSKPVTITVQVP

T3: cynomolgus monkey FcγRIIa3 extracellular domain with C-terminal His-tag (cynomolgus monkey)
T3 construct: also called cyno FcgRIIa3; cynoFcγRIIa3
T3 chain: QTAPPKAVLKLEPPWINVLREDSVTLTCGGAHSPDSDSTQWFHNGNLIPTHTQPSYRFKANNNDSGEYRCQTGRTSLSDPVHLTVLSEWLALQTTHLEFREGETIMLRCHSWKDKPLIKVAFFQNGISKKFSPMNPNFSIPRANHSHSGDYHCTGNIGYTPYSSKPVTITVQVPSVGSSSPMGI

T4: cynomolgus monkey FcγRIIa2 extracellular domain with C-terminal His-tag (cynomolgus monkey)
T4 construct: also called cyno FcgRIIa2; cynoFcγRIIa2
T4 chain: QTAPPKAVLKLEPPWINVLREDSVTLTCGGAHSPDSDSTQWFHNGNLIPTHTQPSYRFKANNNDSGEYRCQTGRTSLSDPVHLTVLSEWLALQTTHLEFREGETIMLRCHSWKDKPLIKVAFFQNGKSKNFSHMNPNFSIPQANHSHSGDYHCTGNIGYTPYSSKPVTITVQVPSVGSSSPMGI

T5: human FcγRIIaR extracellular domain with C-terminal His-tag (human, UniProt P12318 34-217)
T5 construct: also called human FcgRIIaR; FcγRIIa (type R)
T5 chain: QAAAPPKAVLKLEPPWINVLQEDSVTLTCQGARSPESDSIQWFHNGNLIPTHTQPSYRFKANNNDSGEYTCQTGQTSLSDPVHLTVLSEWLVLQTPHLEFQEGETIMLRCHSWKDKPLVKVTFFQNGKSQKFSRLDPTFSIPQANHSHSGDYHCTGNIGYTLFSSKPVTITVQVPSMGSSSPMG


How the values were obtained:
[1] = target: T1, cynomolgus monkey FcγRIIIaS …; test: SPR, KD(SG1)/KD(variant)
[2] = target: T2, cynomolgus monkey FcγRIIb extracellular …; test: SPR (Biacore), KD of SG1 / KD of variant
Experimental: (§1) The kinetic analysis of interactions between these antibodies and FcγR was carried out using BIACORE® T200 or BIACORE® 4000 (GE Healthcare). HBS-EP+ (GE Healthcare) was used as the running buffer, and the measurement temperature was set to 25° C. […] After the measurement, the antibody captured on the chip was washed off by allowing reaction with 10 mM glycine-HCl, pH1.5 and 25 mM NaOH so that the chip was regenerated and used repeatedly. The sensorgrams obtained as measurement results were analyzed by the 1:1 Langmuir binding model using the BIACORE® Evaluation Software to calculate the binding rate constant ka (L/mol/s) and dissociation rate constant kd (1/s), and the dissociation constant KD (mol/L) was calculated from these values. […] Regarding such interactions, KD values were calculated using the following 1:1 binding model described in BIACORE® T100 Software Handbook BR1006-48 Edition AE.

[3] = target: T3, cynomolgus monkey FcγRIIa3 …; test: SPR (Biacore), KD of SG1 / KD of variant
Experimental: as §1

[4] = target: T4, cynomolgus monkey FcγRIIa2 …; test: SPR (Biacore), KD of SG1 / KD of variant
Experimental: as §1

[5] = target: T5, human FcγRIIaR extracellular domain …; test: SPR (Biacore), antibody captured, FcgR analyte
Experimental: as §1

KD fold (SG1 = 1) [1]	KD fold (SG1 = 1) [2]	KD fold (SG1 = 1) [4]	also measured	Binder
0.23 fold	–	–	–	M103205H795-MY536/M103202L889-SK1 (antibody, human IgG1, kappa, name in EU numbering, copies: 2 + 2) heavy: QVTLKESGPVLVKPTETLTLTCTVSGIDLSHDDISWVRQAPGKGLEWVGIISYAGSTYYASWAKGRLTISKDTSKNQVVLTMTNMDPVDTATYYCARGVPAYSHGGDLWGQGTLVTVSSASTKGPSVFPLAPSSKSTSGGTAALGCLVKDYFPEPVTVSWNSGALTSGVHTFPAVLQSSGLYSLSSVVTVPSSSLGTQTYICNVNHKPSNTKVDKKVEPKSCDKTHTCPPCPGPEWLTGPVVFLFPPKPKDTLMISRTPEVTCVVVDVSDEDPEVKFNWYVDGVEVHNAKTKPREEQYNSTYRVVSVLTVLHQDWLNGKEYKCKVSNKALPKPIEKTISKAKGQPREPQVYTLPPSREEMTKNQVSLTCLVKGFYPSDIAVEWESNGQPENNYKTTPPVLDSDGSFFLYSKLTVDKSRWQQGNVFSCSVMHEALHNHYTQKSLSLSP light: DIVMTQSPATLSLSPGERATLSCTSSQSVYHANWLSWFQQKPGQPPKLLIYWASTLAYGVPSRFSGSGSGTDFTLTISSLQPEDAATYYCAGGYGGGRYAFGQGTKVEIKRTVAAPSVFIFPPSDEQLKSGTASVVCLLNNFYPREAKVQWKVDNALQSGNSQESVTEQDSKDSTYSLSSTLTLSKADYEKHKVYACEVTHQGLSSPVTKSFNRGEC
–	1 fold	–	–	M103205H795-MY442/M103202L889-SK1 (antibody, human IgG1, kappa, Substitutions in EU numbering on SG1) heavy: QVTLKESGPVLVKPTETLTLTCTVSGIDLSHDDISWVRQAPGKGLEWVGIISYAGSTYYASWAKGRLTISKDTSKNQVVLTMTNMDPVDTATYYCARGVPAYSHGGDLWGQGTLVTVSSASTKGPSVFPLAPSSKSTSGGTAALGCLVKDYFPEPVTVSWNSGALTSGVHTFPAVLQSSGLYSLSSVVTVPSSSLGTQTYICNVNHKPSNTKVDKKVEPKSCDKTHTCPPCPADELLTGPSVFLFPPKPKDTLMISRTPEVTCVVVDVSDEDPEVKFNWYVDGVEVHNAKTKPREEQYNSTYRVVSVLTVLHQDWLNGKEYKCKVSNKALPKPIEKTISKAKGQPREPQVYTLPPSREEMTKNQVSLTCLVKGFYPSDIAVEWESNGQPENNYKTTPPVLDSDGSFFLYSKLTVDKSRWQQGNVFSCSVMHEALHNHYTQKSLSLSP light: DIVMTQSPATLSLSPGERATLSCTSSQSVYHANWLSWFQQKPGQPPKLLIYWASTLAYGVPSRFSGSGSGTDFTLTISSLQPEDAATYYCAGGYGGGRYAFGQGTKVEIKRTVAAPSVFIFPPSDEQLKSGTASVVCLLNNFYPREAKVQWKVDNALQSGNSQESVTEQDSKDSTYSLSSTLTLSKADYEKHKVYACEVTHQGLSSPVTKSFNRGEC
–	3.5 fold	–	–	M103205H795-MY467/M103202L889-SK1 (antibody, human IgG1, kappa, Substitutions in EU numbering on SG1) heavy: QVTLKESGPVLVKPTETLTLTCTVSGIDLSHDDISWVRQAPGKGLEWVGIISYAGSTYYASWAKGRLTISKDTSKNQVVLTMTNMDPVDTATYYCARGVPAYSHGGDLWGQGTLVTVSSASTKGPSVFPLAPSSKSTSGGTAALGCLVKDYFPEPVTVSWNSGALTSGVHTFPAVLQSSGLYSLSSVVTVPSSSLGTQTYICNVNHKPSNTKVDKKVEPKSCDKTHTCPPCPMPELLTGPSVFLFPPKPKDTLMISRTPEVTCVVVDVSDEDPEVKFNWYVDGVEVHNAKTKPREEQYNSTYRVVSVLTVLHQDWLNGKEYKCKVSNKALPKPIEKTISKAKGQPREPQVYTLPPSREEMTKNQVSLTCLVKGFYPSDIAVEWESNGQPENNYKTTPPVLDSDGSFFLYSKLTVDKSRWQQGNVFSCSVMHEALHNHYTQKSLSLSP light: DIVMTQSPATLSLSPGERATLSCTSSQSVYHANWLSWFQQKPGQPPKLLIYWASTLAYGVPSRFSGSGSGTDFTLTISSLQPEDAATYYCAGGYGGGRYAFGQGTKVEIKRTVAAPSVFIFPPSDEQLKSGTASVVCLLNNFYPREAKVQWKVDNALQSGNSQESVTEQDSKDSTYSLSSTLTLSKADYEKHKVYACEVTHQGLSSPVTKSFNRGEC
–	2.5 fold	1.8 fold	KD fold (SG1 = 1) [3]: 3.5 fold	M103205H795-MY465/M103202L889-SK1 (antibody, Substitutions in EU numbering on SG1) heavy: QVTLKESGPVLVKPTETLTLTCTVSGIDLSHDDISWVRQAPGKGLEWVGIISYAGSTYYASWAKGRLTISKDTSKNQVVLTMTNMDPVDTATYYCARGVPAYSHGGDLWGQGTLVTVSSASTKGPSVFPLAPSSKSTSGGTAALGCLVKDYFPEPVTVSWNSGALTSGVHTFPAVLQSSGLYSLSSVVTVPSSSLGTQTYICNVNHKPSNTKVDKKVEPKSCDKTHTCPPCPKPELLTGPSVFLFPPKPKDTLMISRTPEVTCVVVDVSDEDPEVKFNWYVDGVEVHNAKTKPREEQYNSTYRVVSVLTVLHQDWLNGKEYKCKVSNKALPKPIEKTISKAKGQPREPQVYTLPPSREEMTKNQVSLTCLVKGFYPSDIAVEWESNGQPENNYKTTPPVLDSDGSFFLYSKLTVDKSRWQQGNVFSCSVMHEALHNHYTQKSLSLSP light: DIVMTQSPATLSLSPGERATLSCTSSQSVYHANWLSWFQQKPGQPPKLLIYWASTLAYGVPSRFSGSGSGTDFTLTISSLQPEDAATYYCAGGYGGGRYAFGQGTKVEIKRTVAAPSVFIFPPSDEQLKSGTASVVCLLNNFYPREAKVQWKVDNALQSGNSQESVTEQDSKDSTYSLSSTLTLSKADYEKHKVYACEVTHQGLSSPVTKSFNRGEC
–	–	0.5 fold	Kd [5]: 1100 nM	M103205H795-MY445/M103202L889-SK1 (antibody, human IgG1, kappa, Substitutions in EU numbering on SG1) heavy: QVTLKESGPVLVKPTETLTLTCTVSGIDLSHDDISWVRQAPGKGLEWVGIISYAGSTYYASWAKGRLTISKDTSKNQVVLTMTNMDPVDTATYYCARGVPAYSHGGDLWGQGTLVTVSSASTKGPSVFPLAPSSKSTSGGTAALGCLVKDYFPEPVTVSWNSGALTSGVHTFPAVLQSSGLYSLSSVVTVPSSSLGTQTYICNVNHKPSNTKVDKKVEPKSCDKTHTCPPCPAGELLTGPSVFLFPPKPKDTLMISRTPEVTCVVVDVSDEDPEVKFNWYVDGVEVHNAKTKPREEQYNSTYRVVSVLTVLHQDWLNGKEYKCKVSNKALPKPIEKTISKAKGQPREPQVYTLPPSREEMTKNQVSLTCLVKGFYPSDIAVEWESNGQPENNYKTTPPVLDSDGSFFLYSKLTVDKSRWQQGNVFSCSVMHEALHNHYTQKSLSLSP light: DIVMTQSPATLSLSPGERATLSCTSSQSVYHANWLSWFQQKPGQPPKLLIYWASTLAYGVPSRFSGSGSGTDFTLTISSLQPEDAATYYCAGGYGGGRYAFGQGTKVEIKRTVAAPSVFIFPPSDEQLKSGTASVVCLLNNFYPREAKVQWKVDNALQSGNSQESVTEQDSKDSTYSLSSTLTLSKADYEKHKVYACEVTHQGLSSPVTKSFNRGEC
0.25 fold	–	–	–	M103205H795-MY538/M103202L889-SK1 (antibody, human IgG1, kappa, name in EU numbering, copies: 2 + 2) heavy: QVTLKESGPVLVKPTETLTLTCTVSGIDLSHDDISWVRQAPGKGLEWVGIISYAGSTYYASWAKGRLTISKDTSKNQVVLTMTNMDPVDTATYYCARGVPAYSHGGDLWGQGTLVTVSSASTKGPSVFPLAPSSKSTSGGTAALGCLVKDYFPEPVTVSWNSGALTSGVHTFPAVLQSSGLYSLSSVVTVPSSSLGTQTYICNVNHKPSNTKVDKKVEPKSCDKTHTCPPCPGPEWLTGPSVFLFPPKPKDTLMISRTPEVTCVVVDVSDEDPEVKFNWYVDGVEVHNAKTKPREELYNSTYRVVSVLTVLHQDWLNGKEYKCKVSNKALPKPIEKTISKAKGQPREPQVYTLPPSREEMTKNQVSLTCLVKGFYPSDIAVEWESNGQPENNYKTTPPVLDSDGSFFLYSKLTVDKSRWQQGNVFSCSVMHEALHNHYTQKSLSLSP light: DIVMTQSPATLSLSPGERATLSCTSSQSVYHANWLSWFQQKPGQPPKLLIYWASTLAYGVPSRFSGSGSGTDFTLTISSLQPEDAATYYCAGGYGGGRYAFGQGTKVEIKRTVAAPSVFIFPPSDEQLKSGTASVVCLLNNFYPREAKVQWKVDNALQSGNSQESVTEQDSKDSTYSLSSTLTLSKADYEKHKVYACEVTHQGLSSPVTKSFNRGEC
